For the test, the system named is E-cadherin. Kind of test: E-cadherin phosphorylation (immunoprecipitation and western blot). The format is cell-based, mouse. To be noted: R cells vs RL cells or R cells with inhibitor. From the text: Cells were stained as described previously (Mammoto et al., Cancer Lett. 184:165-170, 2002) and images acquired with a Delta Vision system (Applied Precision, Issaquah, Wash.) equipped with an Axiovert 100 microscope (Carl Zeiss MicroImaging Inc., Shelton, Conn.) and a Photometrics 300 series scientific-grade cooled CCD camera, reading 12-bit images, and using the 63/1.4 NA plan-Neofluar objective. For immunoprecipitation and immunoblotting, tissues were weighed, diced, soaked in ice cold RIPA buffer with 1 mM phenylmethylsulfonyl fluoride (PMSF), 1 μg/ml Aprotinin, 1 mM Na3VO4, 1 nM NaF, homogenized on ice, centrifuged at 10,000 g for 10 minutes at 4° C., and the supernatant fluid collected as total cell lysate. Cultured cells were washed, scraped, and solubilized in a lysis buffer containing 20 mM Tris-HCl pH 7.5, 150 mM NaCl, 0.5% Triton X-100, 1% aprotinin, and 1 mM PMSF. After 20 minutes on ice, the cells were pelleted by centrifugation and the supernatants were used as a cell lysate. Cell lysates or immunoprecipitated cell lysates were separated by PAGE (NuPAGE® gels; Invitrogen, Carlsbad, Calif.), followed by electroblotting onto a polyvinylidenedifluoride membrane (PVDF). Protein bands were detected using SuperSignal® West Pico Chemiluminescent Substrate (Pierce Chemical Co., Rockford, Ill.) (Hanai et al., J. Cell. Biol. 158:529-539, 2002).

B1: lipocalin 2: human lipocalin 2 cDNA (HA tagged) in pcDNA3.1, stably expressed in 4T1-ras cells (RL clone); iron-siderophore binding protein (protein, UniProt P80188 21-198, looked up)
Neutrophil …: QDSTSDLIPAPPLSKVPLQQNFQDNQFQGKWYVVGLAGNAILREDKDPQKMYATIYELKEDKSYNVTSVLFRKKKCDYWIRTFVPGCQPGEFTLGNIKSYPGLTSYLVRVVSTNYNQHAMVFFKKVSQNREYFKITLYGRTKELTSELKENFIRFSKSLGLPENHIVFPVPIDQCIDG
modifications: HA tag
On to B1, for which the E-cadherin phosphorylation result is “markedly downregulated”.

(Values after US20090305963A1, “Lipocalin 2 for the Treatment, Prevention, and Management of Cancer Metastasis, Angiogenesis, and Fibrosis” (priority 2005, published 2009).)
